Columns and labels:
F protein of RSV A-2 = F protein of RSV A-2 (human respiratory syncytial virus, …, UniProt P03420 26-574); experiment: cell-based or functional assay
[1] = target: F protein of RSV Long (RSV LONG M-2) (human respiratory syncytial virus, …, UniProt P12568 26-574); experiment: cell-based or functional assay
[2] = target: hRSV (inactivated hRSV strain Long, Hytest #8RSV79), F protein on virus particles (human respiratory syncytial virus, …, UniProt P12568 26-574); experiment: binding ELISA on coated hRSV (Hytest), anti-VHH detection
[3] = target: T1, FTM-NN protein (membrane anchorless form of the Long fusion protein, 70 kDa) (human respiratory syncytial virus, …, UniProt P12568 26-524); experiment: SPR (Biacore), FTM-NN immobilised
T1 construct: domain: membrane anchorless form of the fusion protein

[4] = target: T1, FTM-NN protein (membrane anchorless …); experiment: competition ELISA on coated FTM-NN; competitor biotinylated Synagis Fab
[5] = target: authentic influenza antigen of A/PR/8/34 (ATCC VR-1469), H1N1 (influenza A virus A/PR/8/34 (H1N1), UniProt P03452 18-565); experiment: ELISA on coated authentic influenza antigen
F protein of RSV B-1 = F protein of RSV B-1 (human respiratory syncytial virus, …, UniProt P13843 26-574); experiment: cell-based or functional assay
[6] = target: FTM-NN protein (membrane anchorless form of the Long fusion protein, 70 kDa) (human respiratory syncytial virus, …, UniProt P12568 26-524); experiment: binding ELISA, periplasmic extract on immobilised antigen
[7] = target: authentic influenza antigen of A/PR/8/34 (ATCC VR-1469), serotype H1N1 (influenza A virus A/PR/8/34 (H1N1), UniProt P03452 18-565); experiment: ELISA, coated authentic AIV antigen, E. coli culture supernatant, anti-c-myc-HRP

B1: LG191D3 (VHH)
VHH: EVQLVESGGGLVQAGGSLRLSCEASGRTYSRYGMGWFRQAPGKEREFVAAVSRLSGPRTVYADSVKGRFTISRDNAENTVYLQMNSLKPEDTAVYTCAAELTNRNSGAYYYAWAYDYWGQGTQVTVSS
- RSV neutralization IC50 (nM) (n = 2), A-2 (F protein of RSV A-2): 227 nM
- RSV neutralization IC50 (nM) (n = 2), Long [1]: 253 nM
- EC50 [2]: 0.15 nM
- Kd [3]: 1.9 nM
- koff [3]: 0.0028 s⁻¹
- kon [3]: 1.5e+06 M⁻¹ s⁻¹
- EC50 [4]: 5.9 nM

B2: 1E4 (VHH)
VHH: EVQLVESGGGLVQAGGSLRLSCEASGRTFSSYGMGWFRQAPGKEREFVAAVSRLSGPRTVYADSVKGRFTISRDNAENTVYLQMNSLKPEDTAVYTCAAELTNRNPGAYYYTWAYDYWGQGTQVTVSS
- RSV neutralization IC50 (nM) (n = 2), A-2 (F protein of RSV A-2): 298 nM
- RSV neutralization IC50 (nM) (n = 2), Long [1]: 380 nM

B3: IV144 (VHH)
VHH: QVQLQQSGGGLVQAGGSLRLSCAASGNIISFNPMGWHRQAPGKQRELVASITSGGSISYVDSVKGRFTISRDSAKNTIYLQMNSLKPEDTAVYFCAGEGPRRRGSTWYTDTYWGQGTQVTVSS
notes: yeast-produced
- binding result [5]: no binding (tested: 10 µg/ml)

B4: RSVNC23 (VHH)
VHH: EVQLVESGGGLVQPGGSLRLSCAASGRTFSSIAMGWFRQAPGKEREFVAAISWSRGRTFYADSVKGRFIISRDDAANTAYLQMNSLKPEDTAVYYCAVDTASWNSGSFIYDWAYDHWGQGTQVTVSS
- RSV neutralization IC50 (nM) (n = 2), A-2 (F protein of RSV A-2): 109 nM
- RSV neutralization IC50 (nM) (n = 2), Long [1]: 144 nM
- EC50 [2]: 0.1 nM
- Kd [3]: 0.92 nM
- koff [3]: 0.00074 s⁻¹
- kon [3]: 800000 M⁻¹ s⁻¹
- EC50 [4]: 2.3 nM

B5: LG191E4 (VHH)
VHH: EVQLVESGGGLVQAGGSLRLSCAASGPTFSADTMGWFRQAPGKEREFVATIPWSGGIAYYSDSVKGRFTMSRDNAKNTVDLQMNSLKPEDTALYYCAGSSRIYIYSDSLSERSYDYWGQGTQVTVSS
- RSV neutralization IC50 (nM) (n = 2), B1 (F protein of RSV B-1): 4330 nM
- EC50 [2]: 0.083 nM
- Kd [3]: 0.27 nM
- koff [3]: 0.00015 s⁻¹
- kon [3]: 570000 M⁻¹ s⁻¹

B6: RSVPMP15H8 (VHH)
VHH: EVQLVESGGGLVQAGGSLRLSCAASGRSFSNYVLGWFRQAPGKEREFVAAISFRGDSAIGAPSVEGRFTISRDNAKNTGYLQMNSLVPDDTAVYYCGAGTPLNPGAYIYDWSYDYWGRGTQVTVSS
- RSV neutralization IC50 (nM) (n = 2), A-2 (F protein of RSV A-2): 218 nM
- RSV neutralization IC50 (nM) (n = 2), Long [1]: 200 nM
- RSV neutralization IC50 (nM) (n = 2), B1 (F protein of RSV B-1): 2340 nM
- EC50 [2]: 0.83 nM
- Kd [3]: 16 nM
- koff [3]: 0.021 s⁻¹
- kon [3]: 1.2e+06 M⁻¹ s⁻¹
- EC50 [4]: 39 nM

B7: PMP19C4 (VHH)
VHH: EVQLVESGGGLVQAGGSLRLSCAASGRSFSNYVLGWFRQAPGKEREFVAAISFRGDSAIGAPSVEGRFTISRDNAKNTGYLQMNSLVPDDTAVYYCGAGTPLNPGAYIYDWSYDYWGRGTQVTVSS
- Binding RSV-A, Fold blanc [6]: 2.5 fold over blank

B8: RSVNC41 (VHH)
VHH: EVQLVESGGGLVQAGGSLSISCAASGGSLSNYVLGWFRQAPGKEREFVAAINWRGDITIGPPNVEGRFTISRDNAKNTGYLQMNSLAPDDTAVYYCGAGTPLNPGAYIYDWSYDYWGRGTQVTVSS
- EC50 [2]: 0.41 nM
- Kd [3]: 8.1 nM
- koff [3]: 0.0067 s⁻¹
- kon [3]: 820000 M⁻¹ s⁻¹
- EC50 [4]: 32 nM

B9: IV25 (VHH)
VHH: QVQLQQSGGGLVQSGGSLSLSCAASGITLNNRVVGWFRQAPGKEREFVGRIMWSVGDTFYARSVKGRFTISRDNAKNTMYLQMNALKPEDTAVYYCAAARDPDLYTGQYEYWGQGTQVTVSS
notes: yeast-produced
- binding result [5]: no binding (tested: 10 µg/ml)

B10: IV133 (VHH)
VHH: QVQLQQSGGGLVQPGGSLRLSCAASSSGFSFNPMGWYRQAPGKQRELVATMTSGGTTNYADSVKGRFTISRDNAKTTVYLQMNSLKPEDTAVYYCNARGPRRATTGWITDDYWGQGTQVTVSS
notes: yeast-produced
- binding result [5]: no binding (tested: 10 µg/ml)

B11: IV156 (VHH)
VHH: QVQLQQSGGGLVQPGGSLRLSCAASRSGFSFNPMGWYRQAPGKQRELVATITSGGTTNYADSVKGRFTISTDNAKTTVFLQMNSLKPEDTAVYYCNGRGPRRGTAGWFTDDYWGQGTQVTVSS
notes: yeast-produced
- binding result [5]: no binding (tested: 10 µg/ml)

B12: IV157 (VHH)
VHH: QVQLQQSGGGLVQPGGSLRLSCAASRSDISFNPMGWYRQAPGKQRELVATISNGGTTNYADSVKGRFTISQDNAKTTVYLQMNSLKPEDTAVYYCNGRGPRYATTGWYTDDYWGQGTQVTVSS
notes: yeast-produced
- binding result [5]: no binding (tested: 10 µg/ml)

B13: PMP1E5 (VHH)
VHH: EVQLVESGGGLVQAGGSLRLSCEASGRTFSPIAMGWFRQAPGKEREFVAVVTRWSGARTVYADSVKGRFTISRDNAENTVYLQMNSLKPEDTAVYTCAADSTNRNSGAIYYTWAYDYWGQGTQVTVSS
- Binding RSV-A, Fold blanc [6]: 3.4 fold over blank

B14: PMP1G3 (VHH)
VHH: EVQLVESGGGLVQAGGSLRLSCEASGRTYSRYGMGWFRQAPGKEREFVAAVSRLSGPRTVYADSVKGRFTISRDNAENTVYLQMNSLKPEDTAVYTCAAELTNRNSGAYYYAWAYDYWGQGTQVTVSS
- Binding RSV-A, Fold blanc [6]: 3.4 fold over blank

B15: PMP20B2 (VHH)
VHH: EVQLVESGGGLVQAGGSLRLSCEASGRTFSSYDMGWFRQAPGKEREFVAAVTRWSGARGVYADSVKGRFTISRDNAENTVHLQMNSLKPEDTAVYTCAADSTNRNSGAVYYTWAYDYWGQGTQVTVSS
- Binding RSV-A, Fold blanc [6]: 3 fold over blank

B16: IV2 (VHH)
VHH: QVQLQESGGGLVQTGGSLRLSCAASGRTFGGYAMAWFRQAPRKGREFVASVTWNGGATDYAGSVKDRFTVSRDTANNTMYLQMNSLKPEDTAVYICGAASGYRSTDRLSDPGWTNYWGQGTQVTVSS
- Extinction at 450 nm in ELISA [7]: 0.048 extinction at 450 nm

B17: IV7 (VHH)
VHH: QVQLQQSGGGLVQTGGSLRLSCAASGRTFGGYAMAWFRQAPGKGREFVAAVTWSAGTTNYAGSVKDRFTVSRDNANNTMYLQMNSLKPEDTAVYICGAASGYRSTDRLSEPAWINYWGQGTQVTVSS
- Extinction at 450 nm in ELISA [7]: 0.048 extinction at 450 nm

B18: IV131 (VHH)
VHH: QVQLQQSGGGLVQAGGSLRLSCAASGSGFSFNPMGWYRQAPGKQRELVASITSGGTTNYVDSVKGRFTISRGNAKNTVYLQMNSLKPEDTAVYYCAAEGPRRRGSTWYTDNYWGQGTQVTVSS
notes: yeast-produced
- binding result [5]: no binding (tested: 10 µg/ml)

B19: RSVPMP15B3 (VHH)
VHH: EVQLVESGGGLVQPGGSLRLSCAASGLTLDYYALGWFRQAPGKEREGVSCISSSDHSTTYTDSVKGRFTISWDNAKNTLYLQMNSLKPGDTAVYYCAADPALGCYSGSYYPRYDYWGQGTQVTVSS
- RSV neutralization IC50 (nM) (n = 2), B1 (F protein of RSV B-1): 1270 nM
- EC50 [2]: 0.058 nM
- Kd [3]: 0.67 nM
- koff [3]: 0.00027 s⁻¹
- kon [3]: 410000 M⁻¹ s⁻¹

B20: PMP20C1 (VHH)
VHH: EVQLVESGGGLVQAGGSLRLSCAASGRTFSSFAMGWFRQAPGKEREFVAAISWSGGSTYYADSVKGRFTISGDNAKNTMYLQMNSLKPEDTAVYYCAADSEILNSGAYYYPWAYVYWGQGTQVTVSS
- Binding RSV-A, Fold blanc [6]: 2.7 fold over blank

B21: RSVPMP7B2 (VHH)
VHH: EVQLVESGGGLVQAGDSLRLSCAASGRTFSSYAMGWFRQAPGKEREFVAAISWSDGSTYYADSVKGRFTISRDNAKNTVYLQMNSLKPEDTAVYYCAADLTSTNPGSYIYIWAYDYWGQGTQVTVSS
- RSV neutralization IC50 (nM) (n = 2), A-2 (F protein of RSV A-2): 177 nM
- RSV neutralization IC50 (nM) (n = 2), Long [1]: 91 nM
- RSV neutralization IC50 (nM) (n = 2), B1 (F protein of RSV B-1): 2690 nM
- EC50 [2]: 0.09 nM
- Kd [3]: 1.1 nM
- koff [3]: 0.00065 s⁻¹
- kon [3]: 570000 M⁻¹ s⁻¹
- EC50 [4]: 1.9 nM

B22: PMP7B2 (VHH)
VHH: EVQLVESGGGLVQAGDSLRLSCAASGRTFSSYAMGWFRQAPGKEREFVAAISWSDGSTYYADSVKGRFTISRDNAKNTVYLQMNSLKPEDTAVYYCAADLTSTNPGSYIYIWAYDYWGQGTQVTVSS
- Binding RSV-A, Fold blanc [6]: 4.7 fold over blank

B23: PMP1A6 (VHH)
VHH: EVQLVESGGGLVQAGGSLRLSCAASGRTFSSYAMGWFRQAPGKEREFVAAIWWSGGSTYYADSVKGRFTMSRDNAKNTVYLEMNNLKPEDTAVYYCAADTDSSNSGSYLYTWAYDYWGQGTQVTVSS
- Binding RSV-A, Fold blanc [6]: 4.2 fold over blank

B24: PMP1G8 (VHH)
VHH: EVQLVESGGGSVQAGGSLRLSCAASGGSFNRFGMGWFRRAPGKERDFVAAINLSGDTTYYVDSVQGRFTISRDNANNIMYLQMNLLKPEDTADYYCAADPDPITAWKQSGAGMDYWGKGTQVTVSS
- Binding RSV-A, Fold blanc [6]: 3.7 fold over blank

Source: US20200123233A1 (published 2020)
